This note sets out measurements from the DeepSol protein solubility set.

A short description of the data set: soluble on expression in E. coli; label from the status in PepcDB or PDB records.
For the sequence “MKIHTTEALMKAEISRRSLMKTSALGSLALASSAFTLPFSQMVRAAEAPVEEKAVWSSCTVNCGSRCLLRLHVKDDTVYWVESDTTGDDVYGNHQVRACLRGRSIRRRMNHPDRLKYPMKRVGKRGEGKFERISWDEALDTISDNLRRILKDYGNEAVHVLYGTGVDGGNITNSNVPYRLMNSCGGFLSRYGSYSTAQISAAMSYMFGANDGNSPDDIANTKLVVMFGNNPAETRMSGGGVTYYVEQARERSNARMIVIDPRYNDTAAGREDEWLPIRPGTDGALACAIAWVLITENMVDQPFLDKYCVGYDEKTLPANAPRNAHYKAYILGEGPDGIAKTPEWAAKITSIPAEKIIQLAREIGSAKPAYICQGWGPQRHSNGEQTSRAIAMLSVLTGNVGINGGNSGVREGSWDLGVEWFPMLENPVKTQISVFTWTDAIDHGTEMTATRDGVRGKEKLDVPIKFLWCYASNTLINQHGDINHTHEVLQDDSKCEMIVGIDHFMTASAKYCDILLPDLMPTEQEDLISHESAGNMGYVILAQPATSAKFERKPIYWMLSEVAKRLGPDVYQTFTEGRSQHEWIKYLHAKTKERNPEMPDYEEMKTTGIFKKKCPEEHYVAFRAFREDPQANPLKTPSGKIEIYSERLAKIADTWELKKDEIIHPLPAYTPGFDGWDDPLRKTYPLQLTGFHYKARTHSSYGNIDVLQQACPQEVWINPIDAQARGIRHGDTVRVFNNNGEMLIAAKVTPRILPGVTAIGQGAWLKADMFGDRVDHGGSINILTSHRPSPLAKGNPSHSNLVQIEKV”, the “soluble on expression in E. coli” value was “not soluble”.

Turning to “MKIQDLLKKEVMIMDLKATSKEAAIDEMITKLVDTGVVTNFAIFKDGIMKREAQTSTGLGDGIAMPHSKNAAVKEATVLFAKSASGVDYEALDGQPTDLFFMIAAPDGANDTHLAALAELSKYLLKEGFADQLRQAKTPDDIIATFDS”, the “soluble on expression in E. coli” value was “soluble”.

Take “MSLEFLIYSLPEEVLREEMLGNFSVALKLIDDFLKKDLPLLQRERLIYEKERIERLLEDYPFTEKEAMEKMREMFEGFSEGEFQYLMNEGVLDYIVVEGEKRFERRFFHNLAFVRSEYRERLRKDERSEKARRILHERLERLIKGEDPKRYRIRARITLKLKETSSKHRVWLPFPKESLQIESVKLLRTSHKSYYISPNDVPQRTIYFEGEDSTFFVEFEYIVREWVNHVDPERVSEKVAGFEEFLKEEPPHIVFTPKLRWLTQTVVGSEVNPYLKAKRIYDWITLNVRYSYVKPYALYENITDFVVNNLKGDCGFQALLFITMCRIAGVPARWQSGWYINPIFGSPHDWALFYVEPYGWLPADLSFGGARRDNESFRSFYFGNLDGFRMVANDGFMKDFDPKTRFVRSDPTDNQVGEAESEEKRLPFESTIEVISFEEVEGGSHHHHHH”: the “soluble on expression in E. coli” value was “soluble”.

As to “MSEFNEKPEKLIVDGLRLDGRKFDELRPIKIEASVLKRADGSCYLEMGKNKVIAAVFGPREVHPRHLQDPSKAIIRYRYNMAPFSVEERKRPGPDRRSIEISKVSKEAFEAVIMKELFPRSAIDIFVEVLQADAGSRTACLNAASVALVDAGVPMKGMITSVAVGKADGQLVLDPMKEEDNFGEADMPFAFLIRNGKIESIALLQMDGRMTRDEVKQAIELAKKGALQIYEMQREAILRRYIEVGEEMDEITEGGEDA”, the “soluble on expression in E. coli” value is on record as “soluble”.

For “LSESDRGASCAPIGAIADAVKSGKVGSCVNNEYDVPGGKVEDFVSGRAYWSPSTGAHALYGRINARYSEMGGPQSWLGFPISSEFAIKDNARVVQFQNGNIYWSPQRGAIAVPKDIVDKWGEQQWENGFLGFPVAEAKEVAGGFIQEFEGGLVVRTKDNKNQWLRGEIAKKYREMKTAESELGFPVSDEIKINGGAFQQFEHGNIYWSAATGAHFIRKGDIFNTWGVKKWEQGELGFPVTDHTQIPAGGEEITFQHGKISQVNGVIREERR”, the “soluble on expression in E. coli” value was “not soluble”.

Turning to “MLNKLMWLTGKAQEDWIEKILHLRQKIWPDYQRIKNDTLFKLYSHYPLYQWLSHYNGEVVAVINSLPVALDQSLDNLPQEGLNWVLSHLESTTPLTQSNYLAAVSVTVNPAYQRLGLSKLLLNRLKASAQEAQYKALIVPARPSQKENY”, the “soluble on expression in E. coli” value was “not soluble”.

On to “GVSETAPASRRGELAVCDAVSGWVTDRRTAVDLRGREVEVLGEVPAAGGSPLRQYFFETRCKADNAEEGGPGAGGGGCRGVDRRHWVSECKAKQSYVRALTADAQGRVGWRWIRIDTACVCTLLSRTGRA”, for which the “soluble on expression in E. coli” value was “soluble”.

In the case of “MYVYKRDGRKEPVQFDKITARISRLCYGLDPKHIDAVKVTQRIISGVYEGVTTIELDNLAAETCAYMTTVHPDYATLAARIAISNLHKQTTKQFSKVVEDLYRYVNAATGKPAPMISDDVYNIVMENKDKLNSAIVYDRDFQYSYFGFKTLERSYLLRINGQVAERPQHLIMRVALGIHGRDIEAALETYNLMSLKYFTHASPTLFNAGTPKPQMSSCFLVAMKEDSIEGIYDTLKECALISKTAGGIGLHIHNIRSTGSYIAGTNGTSNGLIPMIRVFNNTARYVDQGGNKRPGAFALYLEPWHADIFDFIDIRKNHGKEEIRARDLFPALWIPDLFMKRVEENGTWTLFSPTSAPGLSDCYGDEFEALYTRYEKEGRGKTIKAQKLWYSILEAQTETGTPFVVYKDACNRKSNQKNLGVIKSSNLCCEIVEYSAPDETAVCNLASVALPAFIETSEDGKTSTYNFKKLHEIAKVVTRNLNRVIDRNYYPVEEARKSNMRHRPIALGVQGLADTFMLLRLPFDSEEARLLNIQIFETIYHASMEASCELAQKDGPYETFQGSPASQGILQFDMWDQKPYGMWDWDTLRKDIMKHGVRNSLTMAPMPTASTSQILGYNECFEPVTSNMYSRRVLSGEFQVVNPYLLRDLVDLGIWDEGMKQYLITQNGSIQGLPNVPQELKDLYKTVWEISQKTIINMAADRSVYIDQSHSLNLFLRAPTMGKLTSMHFYGWKKGLKTGMYYLRTQAASAAIQFTIDQKIADQATENVADISNLKRPSYMPSSASYAASDFVPAAVTANATIPSLDSSSEASREASPAPTGSHSLTKGMAELNVQESKVEVPEVPAPTKNEEKAAPIVDDEETEFDIYNSKVIACAIDNPEACEMCSG”, the “soluble on expression in E. coli” value was “soluble”.

With “ISKETEEIDEQQVFIDSLSGHAQILYEKYHVLPSITIAQAILESDWGNSELAAKANNLFGVKGNYKGHHVTMETDEVEKGKRKTIRAKFRKYSTFFESMDDHAQLFVRGTSWNKKKYKPVLEAGNYKEAATALQTSGYATDPDYADKISAIVEKYDL”, the “soluble on expression in E. coli” value is reported as “not soluble”.

Regarding “MGSDKIHHHHHHMPYTTYRQQAVDEQTLAQTELNQYIADQAQVIAPEEYTSVEINFYYHEIYISSQLIAQIAYDHNEFVTQRWLVLVNDKEEFRANTWAKCYRYICTHHKDGSLPVQERETPAATTGNEIMVQIADECENLGLELLEDGIYRGDQKLGKAGQTNGNWWFIRTDDATQQQRFCNSASDAMWLVSRAELPEYTDTLNEYLQYRPLEQMPSVELKHLLDSAELTAA”, the “soluble on expression in E. coli” value is “not soluble”.

On to “MKPEDFRTDNKRPLTGEEYLKSLQDGREIYIYGERVKDVTTHPAFRNAAASVAQLYDALHKPSMQDTLCWNTDTGSGGYTHKFFRVAKSADDLRQQRDAIAEWSRLSYGWMGRTPDYKAAFGCALGANPAFYGQFEQNARNWYTRIQETGLYFNHAIVNPPIDRHKPADEVKDVYIKLEKETDAGIIVSGAKVVATNSALTHYNMIGFGSAQVMGENPDFALMFVAPMDAEGVKLISRASYEMVAGATGSPFDYPLSSRFDENDAILVMDKVLIPWENVLIYRDFDRCRRWTMEGGFARMYPLQACVRLAVKLDFITALLKKSLECTGTVEFRGVQADLGEVVAWRNMFWALSDSMCSEATPWVNGAWLPDHAALQTYRVMAPMAYAKIKNIIERNVTSGLIYLPSSARDLNNPQIDQYLAKYVRGSNGMDHVERIKILKLMWDAIGSEFGGRHELYEINYSGSQDEIRLQCLRQAQSSGNMDKMMAMVDRCLSEYDQNGWTVSHLHNNDDINQLDKLLK”, for which the “soluble on expression in E. coli” value is recorded as “not soluble”.

Turning to “LLQTMLSMTSHGPAQVFTERYQLIVQPLGLSQQVEKDSLDLLADYLHGFALSISCCHDASLIKTDMLDGPLKLICSSLLASRT”, the “soluble on expression in E. coli” value is listed as “not soluble”.

As for “MHIAIIGAAGMVGRKLTQRLVKDGSLGGKPVEKFTLIDVFQPEAPAGFSGAVDARAADLSAPGEAEKLVEARPDVIFHLAAIVSGEAELDFDKGYRINLDGTRYLFDAIRIANGKDGYKPRVVFTSSIAVFGAPLPYPIPDEFHTTPLTSYGTQKAICELLLSDYSRRGFFDGIGIRLPTICIRPGKPNAAASGFFSNILREPLVGQEAVLPVPESIRHWHASPRSAVGFLIHGAMIDVEKVGPRRNLSMPGLSATVGEQIEALRKVAGEKAVALIRREPNEMIMRMCEGWAPGFEAKRARELGFTAESSFEEIIQVHIEDELGGSLK”, the “soluble on expression in E. coli” value was “soluble”.

As to “MGSDKIHHHHHHMNNPISDDYRNLLVEVKQRIRSAQYEALKAVNKELIALYWDIGKMIVTQQQEADWGKSVVEQLAKDLQTEFPGISGFSTRNMWNMRSFYIAYSQNEKLQPLVAEIGWTHNIVILEKCKDDLEREFYLRMTRKFGWTKNVLIHQIENQTYEKTLLNQTNFNQTVPAEIRNQLKLAVKDEYTFDFLELADEHSERQLEQAILARVEPFLQEMGGRFTFVGSQYRLEIGDQEFFIDLLLYHRQLKCLVAVELKTGEFLPEYVGKMQFYLAALDDLSRLPDENLSIGIILCKSKNKTIVEYALRESNKPIGVATYKVFSSLPQDLRNQLPAPEQVAKLLEGVE”, the “soluble on expression in E. coli” value was “not soluble”.

For “MGSDKIHHHHHHMGIINAAFRLSQIERSIINKECHRTTCSLMDFIRDYTVVATDLEEAVQLRSTYNSLRRLGESDITEEDAVNILQQGTVIFNRISAYSYEELERKLVANYPNTPVLNAVDVVKKYSQKGNFKLGPVSTVLNAGEITGIVGENGNGKTTLLRILARLLSYDEGVLQYQFDGQETTEDYLIKHRIAYIPQRLESWQGTLRENLHYAATIHNIVGEENEKIVEFVIHRMGLSNFAHLGWKELSSGYKLRFELAKMLVWSPRILVLDEPLANLDINAQEWILQDFKSMASSIKNPVSVILSSQQLHEVEHVADNIIFLRNGRCDYSGAMNAFMQERDENVFELSGNFTSKELQPIFSNHAVQFSESGITIIVRTNTAITAADVLSMLISNGYTIKYFRDISTSTKQLFQL”, the “soluble on expression in E. coli” value was “not soluble”.

For “MRNETLVSIIVPVYNSAQYLRKCIDSILAQSYTEFELLLINDGSEDHSGLICDDYAQSDNRIQVFHQENAGVSAARNLGLEKHTGEHFLFIDSDDYIQERYLEELMKYASCDFVQCSCCSEPVGNDYLFVDGNFEGSDEIKQCLLKYIYPEFTVPFGRLYKSSIQRKNKLFFDTYLYSGEDTLWVSQYLLCVHSLRVSSYIGYIYVHHVGEHLSQKSISYEHLEYTLHKLLISYSDLEKRYDFDLTGVRYSVIIYFFHRYIVYIANRNYTEIRKELEKSCANPLIKGVFYDKKYLLKGKKMKLFNWLVLHDMYSVLALYVKRWKRYL”, the “soluble on expression in E. coli” value was “not soluble”.

As for “MVTPVSICNYISLPDDFPARNIAPQVKEVLKDFIDALSTIICDEEWRTSLNTNSATKKIFNNLDNLSYIQRTSFRGNDTLYNEKVQFKLTYPVKNGRHKENIEFQVVINLSPIYLDNFRHDGEINIFCAPNPKPVTMGRVFQTGVERVLFLFMNDFIEQFPMINLGAPIKRAHTPHIEPLPPDHHTAADYLRQFDLLVLNFISRGNFVILPRLWNNSEVHRWFVNKDPNLITAILDITDSELKEDLLQSLMDSLGSNKHVQPEVCICFLSLLAEQESPHFQDLFLFFANMLLHYHQFMNPNESDLNDVLMPASLSDDKIIKHMARRTLKLFVKNETPPKVTHEDLVKNRPRSPVRPPIPATAKTPDLPERH”, the “soluble on expression in E. coli” value is recorded as “not soluble”.

For the sequence “MAVQLLENWLLKEQEKIQTKYRHLNHISVVEPNILFIGDSIVEYYPLQELFGTSKTIVNRGIRGYQTGLLLENLDAHLYGGAVDKIFLLIGTNDIGKDVPVNEALNNLEAIIQSVARDYPLTEIKLLSILPVNEREEYQQAVYIRSNEKIQNWNQAYQELASAYMQVEFVPVFDCLTDQAGQLKKEYTTDGLHLSIAGYQALSKSLKDYLY”, the “soluble on expression in E. coli” value was “soluble”.
